# Measured values reported in the supplement of paper PMC9170038.
# Tested on: MS2 coat protein
# Assay: apparent KD of MS2 coat protein; higher = weaker reporter binding
# Details: Eterna round: R107
# Summary of the method: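 Normalised binding curves from single clusters were fitted, and the median fit for each design is given as apparent KD. The clusters held designed RNA switches transcribed on-chip from Illumina sequencing clusters. These were titrated with SNAP-549-labelled MS2 coat protein (twofold steps from 0.7 or 1.5 nM to 3 µM, 0.8–1.5 h to 10–20 min per step) in 100 mM Tris-HCl pH 7.5, 80 mM KCl, 4 mM MgCl2, without or with constant ligand.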
# [1] = input ligand: theophylline 20 uM
# [2] = input ligand: tryptophan 2.4 mM
# [3] = input ligand: theophylline 2 mM
Sequence,apparent KD of MS2 coat protein (input ligand: arginine 13.2 mM) [µM],apparent KD of MS2 coat protein [1] [µM],apparent KD of MS2 coat protein [2] [µM],apparent KD of MS2 coat protein (input ligand: none) [µM],apparent KD of MS2 coat protein [3] [µM]
GCUUGGGUGGCACAGCCCUGGCAGUGCGAUACCAGCACGGUAACGUGCCCUUGGCAGCGCACAUGAGGAUCACCCAUGUGGUGCG [#1 Exclusion - Theophylline A Attempt #25 (HarryS)],0.0287,0.197,0.0626,–,–
GUGGAGACCUCGGCCGCCACUCUCCAUGAGGAUCUCCCAUGUAACAUGAGGAUCACCCAUGUGCUGAGGACCGGGAGGUCCUGAA [Same State Tryptophan B GF 19],0.0157,0.0134,0.00955,0.00947,0.011
AAUCUGUCGGGUGAUACCAGCCUCGGCACGUCUCGUGCCGAACAUGAGGAUCACCCAUGUGGCCCUUGGCAGCACAUGACAAAUC [Teaton],0.0718,0.729,0.606,–,–
AUACAUGAGGAUCACCCAUGUUAUAGUGAAGGAGCGACAUUUAGGUCAGGUAGGUCGCACUAUUGAAUUAUUAUCCUCUUUUCUU [JR_ExcArginiA_Sub021],0.0231,0.0312,0.0247,0.0213,0.0237
AAACGACAUGAGGAUCACCCAUGUGCCGAUACCAGCCGGAUAUACGGCCCUUGGCAGCGGAGUAAAUCCGGAGGACAAUGGGUAA [Same State Theophylline A GF6],0.0377,0.0495,0.0395,0.057,0.0924
GAUGAACUAUUUGAUACCAGACUACAUGAGGAUCACCCAUGUGAGUUUCCUCCUCUGCCAGUCCCUUGGCAGCAAAUAGUUUAUC [XTheo B #7],0.0576,0.0969,0.0423,–,–
ACAUGAAGAACAGCGGUGGGCGCGCUCGAUACCAGUACUUUGAAAUACCCUUGGCAGCGACAUGAGGAUCACCCAUGUGAGAUGA [XTheo A #3],0.013,0.0256,0.0157,0.0166,0.0495
CAAGAAUGACGUACAGAUAACAAUAACGAUACCAGUACAUCAUUAUACCCUUGGCAGCGUUUCACAUGAGGAUCACCCAUGUACA [theeternabot_exclusion_MS2_Theo_A_14],0.0154,0.0201,0.0176,–,–
CUAUAAUAUAGAAGGAGCGUCGAAAAUGGGUAAACAUGAGGAUCACCCAUGUAAAGGGAACGACAGGUAGGUCGCUAUAUUAUAG [AstromonsSSArgB#12],0.181,0.237,0.223,0.228,0.305
CCUUAAUAUAGAAGGAGCGCGCUAACAUGAGGAUCACCCAUGUAAAGGGUUUUUGGCUUAGCGCAGGUAGGUCGCUAUAAGAACC [Arg B Ex t1],0.074,0.162,0.134,0.128,0.131
AAGGUGAUCCCAGAUACCAGCCUAACAUGAGGAUCACCCAUGUUUGGGACGAAAGUCCCAGGCCCUUGGCAGCUGGGUUGCCAAG [SSTheo B #17],0.0488,0.131,0.185,–,–
UCUUACUUGGUAGAUACCAGCGUGUUAUCUUUCUUUUGACAUGAGGAUCACCCAUGUAUAUGCCCUUGGCAGCUGCAUAGUGUGU [#02 Same State - Theophylline B],0.0269,0.0417,0.0301,–,–
ACAUGUUGGUGGUAUCUACGAAGGCGGAAACGAGGACCGGUACGGCCGCCACUCGGCGACAUGAGGAUCACCCAUGUGGUUAAAA [Exclusion - Tryptophan A (Freestyle 5)],0.0288,0.0969,–,–,0.254
AUAAAUAAUAAAUAAGAUAAAAUGGGUGAACGAGGACCGGUACGGCCGCCACUCGGACAUGAGGAUCACCCAUGUCCAUGUGAAA [#22 Exclusion Tryptophan A],0.014,0.0198,–,–,0.0202
AUCGCACCUGGUGAUACCAGCGUUUGCUCGCGACAUGAGGAUCACCCAUGUGGCCAGUGAUGCCCUUGGCAGCAUGGUCGGUGCA [Same State - Theophylline B (Freestyle 27)],0.0755,0.309,0.314,–,–
CUUGAUAACUGAAGGAGCGAGAAACCCUACAUGAGGAUCACCCAUGUAUACACGGGAACUUCUCAGGUAGGUCGCAGUAUGUCAA [Teveor],0.0906,0.0893,0.0715,0.0544,0.165
AGCUGGGAUCCUCAGCGUCAAAGACGCAGUCGAGGACCGGUACGGCCGCCACUCGACACGAGGAUCACCCGUGUCAUUCCCAGCA [TrypAX 1 #SwitchBubble #AlternativeMS2 #MS2Late #CuTurnoff],0.0345,0.387,1.46,–,0.584
CGGUAACCACAUGAGGAUCACCCAUGUGAAGGAGCGGCGAAUAAGCCAGGUAGGUCGCGCAUGAAUAAAUCAUGUUGGUGCCGAA [XArg-A 16 NuPack],0.0319,0.121,0.031,0.0457,0.0645
GAUAUGUAUCGAAGGAGCGGCCCUUGAUCCUCAUGAGACAUGAGGAUCACCCAUGUCUCGGGCCAGGUAGGUCGCGAUAUAUAUC [Astros-omei-mod3],0.0249,0.0243,0.0218,0.0184,0.0247
UGACAUUGCUGCGAUACCAGACAUGAGGAUCACCCAUGUGCCAAAUAAACGUACAUAAAUGUCCCUUGGCAGCGCAGCAAUGUCU [MAT - Exclusion Theophlline B - Mod of Eli - D29],0.0449,0.112,0.061,–,–
GAGCUGAUGUAGGCCGGAUAUCCGGGAGAUACCAGUACAGAAAUGUACCCUUGGCAGCUCUUUCCUACAUGAGGAUCACCCAUGU [Ex Theophylline A 28],0.017,0.0217,0.0178,–,–
AGCAUGUUAUCAGAUACCAGACAUCUUUUAAAACAUAUUACAUGAGGAUCACCCAUGUUGGUCCCUUGGCAGCUGAAAUAUUUCA [JR_Nu_SSTheophyB_Sub024],0.118,0.223,0.321,–,–
GUCUGUGACUGAAGGAGCGACAUGAGGAUCACCCAUGUCUCCCGUUAUGGGAGUUCCUUAGGUCAGGUAGGUCGCAGUCACAGAC [#1 Exclusion - Arginine B Attempt #28 (Inspired by Omei)],0.0714,0.137,0.103,0.112,0.152
AGCCACUCGAGUGAUCCUCACGAGUGGCUACGAGGACCGGUACGGCCGCCACUCGAAUUAACAUGAGGAUCACCCAUGUAAUAAU [Brourdmod03],0.0292,0.188,–,–,0.27
CCUAUGCAGUCGGCCGCCACUGAACAUGAGGAUCACCCAUGUAAUUAAAAUUAAGGUCCUAAAAUCAGGACCGGGACUGUAUAGG [Ex Tryptophan B 6],0.0376,0.0433,–,–,0.0566
UGUGCAUGAGUUGUAAAAGCUCAUGGGCAUCGAGGACCGGUACGGCCGCCACUCGGCUGUACAUGAGGAUCACCCAUGUCAGGGU [#1 Same State - Tryptophan A Attempt #22 (HarryS)],0.133,0.609,–,–,1.1
ACUGCUUUAGCGGCCGCCACUACAUGGACACUUACACUUUCUUGUUACAUGAGGAUCACCCAUGUUAGGACCGGGCUUGUACGGA [theeternabot_exclusion_MS2_Trp_B_31],0.0305,0.0826,–,–,0.0684
UCGCAUUGCUCAGAUACCAGACAUGAGGAUCACCCAUGUACCAAGGUACCCGAAAGGAAUGUCCCUUGGCAGCUGAGCAAUGCGU [MAT - Exclusion Theophlline B - Mod of Eli - D19],0.0105,0.014,0.0104,–,–
